Measured values published in PMC6736635 (Nature structural & molecular biology, 2019).

Target: EZH2 (human, wild type, subunit of reconstituted PRC2 complexes) (human, UniProt Q15910-2 1-751)
Assay: SEC

B1: EED (human, wild type, subunit of reconstituted PRC2 complexes) (natural protein)
chain: not shown
Question: Does B1 bind?
Answer: Result: binds
